Reference: the supplement of paper PMC9170038

System: MS2 coat protein
Assay: apparent KD of MS2 coat protein; designed switch direction (-1 OFF switch, 1 ON switch): -1; higher = weaker reporter binding
Outline: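 RNA switches sharing common flanks were transcribed by stalled E. coli RNA polymerase on Illumina chips. A doubling series of SNAP-549-labelled MS2 coat protein, from 0.7 or 1.5 nM to 3 µM, was applied in Tris-HCl pH 7.5 buffer with KCl, MgCl2, BSA, DTT, tRNA and Tween-20. Each step lasted 0.8–1.5 h at the bottom of the series and 10–20 min at the top. Normalised cluster fluorescence was curve-fitted, giving apparent KD as the per-design median over clusters.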

[1] = input ligand: microRNA oligo, concentration not stated

Sequence | apparent KD of MS2 coat protein (input ligand: FMN 200 uM) [nM] | apparent KD of MS2 coat protein [1] [nM] | apparent KD of MS2 coat protein (input ligand: none) [nM]
UACAUGAGGAUCACCCAUGUUUUGUCGUGUAUGGUAUUUAUCUAGGAUAUCAAUUUAUUUAAUUAUGAGAAGGAGAAUAUUAAU [JMF's solution 21] (Eterna round: R96, puzzle: Exclusion NG 3) | 36.3 | 27.7 | 34.7
UACAUGAGGAUCACCCAUGUUUUGUCGUGUAUGGUAUUUAUCUAGGAUAUCAGGUUAUUUAUUUAUGAGAAGGAGAAUAUUAAU [JMF's solution 25] (Eterna round: R96, puzzle: Exclusion NG 3) | 33.3 | 37.5 | 34.3
UACAUGAGGAUCACCCAUGUUUUGUCGUGUAUGGUAUUUAUCUAGGAUAUCAGUUUAUUUAUUUAUGAGAAGGAGAAUAUUAAU [JMF's solution 7] (Eterna round: R96, puzzle: Exclusion NG 3) | 28 | 22.4 | 32.7
UACAUGAGGAUCACCCAUGUUUUGUCGUGUAUGGUAUUUAUCUAGGAUAUCGAUUUAUUUAACCACGAGAAGGAGAGUAUCAAU [MOD Solution 21 by JMF] (Eterna round: R96, puzzle: Exclusion NG 3) | 46.4 | 36.8 | 44.1
UACAUGAGGAUCACCCAUGUUUUGUCGUGUAUGGUAUUUAUCUAGGAUAUCGUUUUAUUUAACCACGAGAAGGAGAGUAUCAAU [MOD2 Solution 21 by JMF] (Eterna round: R96, puzzle: Exclusion NG 3) | – | 33.9 | 39.7
UACAUGAGGAUCACCCAUGUUUUGUCGUGUUUGGUACCCGUUUAGGAUAUCGUGUUAUUGGACCGCGAGAAGGAGAGUAUCAUU [Excl-NG3-LRO06] (Eterna round: R96, puzzle: Exclusion NG 3) | 32.2 | 18.4 | 39.9
UACAUGUGAGGAUAUUAGUAGUAAAUAAAUAAAAUUAUUACUGAGAAGGUACAUGAGGAUCACCCAUGUUCCUU [Salish 062 v23] (Eterna round: R97, puzzle: Exclusion 4) | 17.5 | – | 12.7
UACCCGUGAGGAUAUAGAGUCCUACACAUGAGGAUCACCCAUGUCAGCCUUAUCGUGGAUCUAGAAGGCAUAAACG [Eternabot (L1) Solution 88] (Eterna round: R97, puzzle: Exclusion 5) | 103 | – | 183
UACCUAUAGGUAGGAUAUCAUUGCGAUUAGCUAUGAGAAGGACCACAUGAGGAUCACCCAUGUCCUCCAAUUAACCGAAAGGUA [Fiskers ExNg1 - 2] (Eterna round: R96, puzzle: Exclusion NG 1) | 77.3 | 39.7 | 50.4
UACCUGAGGCAAAGCUUUAGGCUUACAUGAGGAUCACCCAUGUAGGAUAUGGUAGGCUUUGCUUACCAGAAGGACAUGGAAAUU [Mat - Exclusion NG 3 - Mod of JL - D22] (Eterna round: R96, puzzle: Exclusion NG 3) | 64.3 | 18 | 19.1
UACCUGAGGCUUUGCUUUAGGCUUACAUGAGGAUCACCCAUGUAGGAUAUGGUAGGCAAAGCUUACCAGAAGGACAUGGAAAUU [Mat - Exclusion NG 3 - Mod of JL - D21] (Eterna round: R96, puzzle: Exclusion NG 3) | – | 13.2 | –
UACGAAGAGUGAGGAUAUGUGCGACAAAGUUGCACAGAAGGCACAUGAGGAUCACCCAUGUGAGCUAGGUCGAAAGACCUAGCG [Omei Exc(NG)1 Av6] (Eterna round: R96, puzzle: Exclusion NG 1) | 37 | 13.6 | 19.7
UACGAGUUAGGAUAUGCAAUGGGCUCGCUUUCCUUCGAUAAACUUGAGGAUCACCCAAGUAGAAGGAACUUGUA [Mod 36 - Jieux - Exclusion 2] (Eterna round: R97, puzzle: Exclusion 2) | 19.9 | – | 16.2
